Entries after “also recorded” stand apart in the source; their conditions may differ.
Experiments:
[1] = system: CD39^+CD73^+SK-MEL-28 cells; experiment: Extracellular ATP accumulation in SK-MEL-28 supernatants (AmpGlo Kit); type: cell-based, human; settings: 1 hour treatment; 50 μM ATP for 15 min
Experimental: (§1) The supernatants were analyzed for ATP levels using AmpGlo Kit (A) and for adenosine levels using LC/MS analysis (B). % Adenosine levels were normalized to isotype control (100%) and SK-MEL-28 CD39 KO cells (0%).

[2] = biological target: T1, hCD39-ECD (Homo sapiens, UniProt P49961); experiment: Epitope binning / competition for hCD39-ECD binding by Bio-Layer Interferometry
T1 sequence (P49961 38-478 limits assumed): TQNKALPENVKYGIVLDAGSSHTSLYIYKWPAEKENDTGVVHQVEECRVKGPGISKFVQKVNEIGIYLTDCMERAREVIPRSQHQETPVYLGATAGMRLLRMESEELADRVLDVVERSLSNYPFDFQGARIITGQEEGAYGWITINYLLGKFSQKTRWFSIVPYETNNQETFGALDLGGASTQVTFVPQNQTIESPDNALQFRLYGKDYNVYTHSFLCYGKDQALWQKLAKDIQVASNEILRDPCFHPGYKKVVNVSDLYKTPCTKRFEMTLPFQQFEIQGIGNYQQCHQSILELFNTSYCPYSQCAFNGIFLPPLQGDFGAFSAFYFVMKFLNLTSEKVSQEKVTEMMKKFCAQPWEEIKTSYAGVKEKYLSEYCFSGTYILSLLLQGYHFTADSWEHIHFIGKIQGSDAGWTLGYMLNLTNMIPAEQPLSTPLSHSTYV
Source text: A1 antibody was immobilized onto an Anti-Mouse IgG Fc Capture (AMC) biosensor (ForteBio). Association of hCD39-ECD was then monitored for 180 seconds via Bio-Layer Interferometry (BLI) using the Octet system (ForteBio), at which point the biosensor was dipped into competitor antibody and monitored for another 180 seconds.
The methods are the same as set forth above except that instead of A1, the representative antibody was immobilized using anti-human IgG Fc Capture (AHC) biosensor.
Also, an 18 hour incubation was used with the antibody or isotype control. Finally, an additional 30 second baseline dip in buffer between antigen capture and dipping into a second competitor antibody for 300 seconds was used.

[3] = system: CD39^+CD73^+SK-MEL-28 cells; experiment: Adenosine generation by SK-MEL-28 cells (LC/MS); type: cell-based, human; settings: normalized to isotype control (100%) and CD39 KO cells (0%)
Experimental: as §1

[4] = biological target: T2, human-mouse CD39 chimeras (Homo sapiens, UniProt P49961, D150A/E143Q/E153S/L144S/N158S/R147E/R154T/S157K/V151A); experiment: Binding to human-mouse CD39 chimeras and point mutants expressed in CHO cells (FACS); settings: 15 μg/ml antibody
T2 construct: expressed in transfected cells; host or cells: CHO cells
T2 sequence (P49961 1-510 E143Q/L144S/R147E/D150A/V151A/E153S/R154T/S157K/N158S): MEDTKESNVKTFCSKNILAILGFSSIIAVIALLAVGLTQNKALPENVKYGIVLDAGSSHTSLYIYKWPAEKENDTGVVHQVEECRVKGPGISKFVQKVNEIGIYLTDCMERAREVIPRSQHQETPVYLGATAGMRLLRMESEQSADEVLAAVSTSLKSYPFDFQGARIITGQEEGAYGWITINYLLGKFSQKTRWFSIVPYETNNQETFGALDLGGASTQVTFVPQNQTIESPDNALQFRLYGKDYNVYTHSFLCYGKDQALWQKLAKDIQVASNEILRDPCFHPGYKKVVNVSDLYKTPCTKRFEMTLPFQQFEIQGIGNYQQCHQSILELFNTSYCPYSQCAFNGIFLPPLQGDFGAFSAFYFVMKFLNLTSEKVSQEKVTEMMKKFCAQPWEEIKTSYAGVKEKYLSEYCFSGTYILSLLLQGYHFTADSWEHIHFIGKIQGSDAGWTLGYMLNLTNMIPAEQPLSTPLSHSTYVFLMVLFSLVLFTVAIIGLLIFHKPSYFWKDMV
Experimental: (§2) Chimeras were generated by replacing human CD39 with mouse CD39 sequence in mammalian expression vectors. The chimeras were expressed in CHO cells and the ability of anti-human CD39 antibodies to bind the chimeras tested via FACS. In brief, cells were washed and blocked in FACS buffer (PBS/2% FBS) for 30 min on ice. They were then incubated with 15 μg/ml anti-human CD39 antibodies diluted in FACS buffer×1 h on ice. After 2 washes, cells were incubated with fluorescently labeled anti-human Fc antibodies, anti-mouse Fc antibodies, or anti-mCD39 antibody (R&D Systems 495826) diluted in FACS buffer per manufacturers' instructions×30 min on ice. After 2 washes, cells were resuspended in FACS buffer and analyzed on BD Fortessa. Data was processed with FlowJo. Positive binding was scored as “yes” and lack of binding was scored as “NO” and examples of FACS plots used to generate this table are in FIGS. 14.F and 14.G.
(§3) Chimeras were generated by mutagenesis of Chimera #2 or WT hCD39 expression vectors. Residues for mutagenesis were chosen based on divergence between human and mouse CD39. The chimeras were expressed in CHO cells and the ability of anti-human CD39 antibodies to bind the chimeras tested via FACS, as described in FIG. 14E. Table 2. Positive binding was scored as “Yes” and lack of binding was scored as “No” and examples of FACS plots used to generate this table are in FIGS. 14.F and 14.G.

[5] = biological target: T3, human-mouse CD39 chimeras (Homo sapiens, UniProt P49961, E276G/I277V/N275G); experiment: as above; settings: 15 μg/ml antibody
T3 construct: expressed in transfected cells; host or cells: CHO cells
T3 sequence (P49961 1-510 N275G/E276G/I277V): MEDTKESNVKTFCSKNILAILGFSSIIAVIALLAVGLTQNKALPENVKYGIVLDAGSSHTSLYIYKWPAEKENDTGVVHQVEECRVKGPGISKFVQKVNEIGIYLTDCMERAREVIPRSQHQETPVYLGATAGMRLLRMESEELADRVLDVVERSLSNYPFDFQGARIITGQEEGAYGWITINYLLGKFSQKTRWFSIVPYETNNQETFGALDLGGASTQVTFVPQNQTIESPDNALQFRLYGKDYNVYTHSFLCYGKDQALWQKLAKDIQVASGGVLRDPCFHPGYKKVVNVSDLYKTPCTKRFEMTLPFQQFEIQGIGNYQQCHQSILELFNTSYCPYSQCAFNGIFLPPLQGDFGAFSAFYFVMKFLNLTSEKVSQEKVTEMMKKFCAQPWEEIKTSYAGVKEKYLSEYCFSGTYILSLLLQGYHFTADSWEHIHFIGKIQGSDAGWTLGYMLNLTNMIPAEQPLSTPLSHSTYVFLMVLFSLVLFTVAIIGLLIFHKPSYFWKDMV
Experimental: as §2, §3

[6] = system: human-mouse CD39 chimeras; experiment: as above
Experimental: as §2, §3

[7] = system: CD4^+ and CD8^+ T cells in stimulated PBMCs; experiment: Proliferation of anti-CD3+anti-CD28 stimulated T cells (Cell Trace Violet); type: cell-based, human; settings: 50 μM ATP; 96 hours; vs isotype control
Experimental: Proliferation of CD4^+ and CD8^+ T cells was measured by Cell Trace Violet by flow cytometry.

[8] = system: stimulated human PBMCs; experiment: Cytokine secretion by anti-CD3+anti-CD28 stimulated PBMCs (Meso Scale Discovery); type: cell-based; settings: 96 hours
Experimental: Supernatants were harvested after 96 hours and cytokines were measured using a Meso Scale Discovery human cytokine kit.
Supernatants were harvested after 96 hours and analyzed by Meso Scale Discovery human cytokine kit.

B1: 31895: inhibitory anti-CD39 antibody, contacts E143-N158 incl. D150 and E153 (antibody, V domains shown)
VH: QVQLVQSGAEVKKPGASVKVSCKASGYTFKSYEMHWVRQAPGQGLEWMGRINPSVGSTWYAQKFQGRVTMTRDTSTSTVYMELSSLRSEDTAVYYCARGKREGGTEYLRKWGQGTLVTVSS
VL: EIVLTQSPGTLSLSPGERATLSCRASQSVASSYLAWYQQKPGQAPRLLIYGASNRHTGIPDRFSGSGSGTDFTLTISRLEPEDFAVYYCQQYHNAITFGGGTKVEIK
modifications: Synthetic VH, 31895; Synthetic VL, 31895
notes: D150 and E153
- extracellular ATP accumulation [1]: Increase Extracellular ATP Accumulation
- competition / binning with other anti-CD39 antibody bin groups for ECD binding [2]: do not bin with anti-CD39 antibody bin groups represented by antibodies A1, 27536, or 27549
- adenosine generation (% of adenosine levels) [3]: Reduces Adenosine Generation
- binding to Chimera #2 (human E143-N158 replaced by mouse sequence) [4]: able to bind all chimeras but Chimera #2; also recorded: inability to recognize Chimera #2
- binding to Chimera #4 [5]: able to bind all chimeras but Chimera #2
- binding to Chimera #9,10 (single residues of Chimera #2 reverted to human) [6]: restore the ability
- binding to Chimeras #13,14 (two human residues co-mutated to mouse) [6]: did not impair binding
- % CD4^+ T cell proliferation [7]: increases proliferation
- % CD8^+ T cell proliferation [7]: increases proliferation
- secretion of INF-γ, TNF-α and IL-2 ([8]; absence of exogenous ATP): increases cytokine secretion
- release of INF-γ, TNF-α, IL-2 and IL-1β ([8]; fixed concentration of 50 μg/ml, presence of ATP, compared to HAO-391 and HAO mAb4): increased cytokine release by activated PBMCs to a higher degree
- secretion of INF-γ, TNF-α and IL-2 ([8]; presence of exogenous ATP (50 μM)): increases cytokine secretion

Reference: patent US20190062448A1, “ANTI-CD39 ANTIBODIES, COMPOSITIONS COMPRISING ANTI-CD39 ANTIBODIES AND METHODS OF USING ANTI-CD39 ANTIBODIES” (Tizona Therapeutics, priority 2017, published 2019)
